According to patent US20160017326A1, “MICRORNAS AS FUNCTIONAL MEDIATORS AND BIOMARKERS OF BONE METASTASIS” (THE TRUSTEES OF PRINCETON UNIVERSITY, priority 2013, published 2016):

How the values were obtained:
RANKL = experiment: cell-based or functional assay
[1] = system: miRNA expression in RAW264.7 cells; experiment: qRT-PCR of osteoclast miRNA expression after sICAM1 treatment; assay type: cell-based, murine; settings: for sICAM1-induced miRNA expression changes: 50 ng/ml sICAM1, 20 μM inhibitor, 6 days
Method: (§1) mRNA was analyzed by synthesizing cDNA using the Superscript III First-strand kit (Invitrogen) and qPCR performed using the Power SYBR® green PCR master mix (Applied Biosystems). Mature miRNAs were reverse transcribed using the TaqMan Reverse Transcription Kit (Applied Biosystems) followed by real-time PCR using TaqMan miRNA assays (Applied Biosystems). All analysis was performed using an ABI 7900HT PCR machine according to the manufacturer's instructions. A standard curve was created from serial dilutions from cDNA for each gene of interest. Values were normalized by the expression of GAPDH or RNU6B in each sample.

[2] = system: osteoclast marker genes in RAW264.7 cells; experiment: qRT-PCR of osteoclast marker genes; assay type: cell-based, murine; settings: sICAM1 together with 50 ng/ml RANKL versus RANKL alone
Method: as §1

RAW264.7 cells [3] = experiment: RANKL-induced osteoclast differentiation, TRAP staining; assay type: cell-based, murine; settings: for osteoclast differentiation / TRAP+ osteoclasts: 6 days
Excerpt: HeLa and RAW264.7 cells (American Type Culture Collection, ATCC) were maintained in Dulbecco's modified Eagle's medium (DMEM) supplemented with 10% fetal bovine serum (FBS), penicillin/streptomycin (GIBCO), and fungizone. MOCP-5 cells were maintained in αMEM with 10% FBS and antibiotics. MDA-MB-231 parental cells (ATCC) and all sublines (SCP2, SCP4, SCP6, SCP28, SCP46) were maintained in DMEM with 10% FBS and antibiotics. The murine 4T1 and 4T1.2 cells, and human TSU-Pr1, and TSU-PR1-B2 cells were similarly maintained in DMEM with 10% FBS and antibiotics. For osteoclast differentiation assays, cells were treated with indicated concentration of RANKL in DMEM plus 10% FBS, with media changes performed every 2 days. Primary osteoclasts were isolated from bone marrow cells flushed from the tibia of 6-week-old wild type Balb/c mice and filtered through a […] cell-strainer before overnight culture in aMEM with 10% FBS. The following day 1×10^6 non-adherent cells were plated in 6-well plates supplemented with 50 ng/mL M-CSF for 2 days, followed by 50 ng/mL RANKL for an additional 4-5 days, with media changes every 2 days. Human osteoclasts were obtained from Lonza (2T-110) and differentiated by treatment with 33 ng/ml M-CSF and 66 ng/ml RANKL. CM was collected from the indicated sub-confluent tumor cells grown in DMEM with […] for 24 hours. The CM was passed through a 0.2 μm filter before addition to 1×10^5 RAW264.7 or MOCP-5 cells in a 6-well plate. The media was replaced with fresh CM daily. Cells were TRAP stained on day 6 using a leukocyte acid phosphatase kit (Sigma) and TRAP^+-multineucliated cells were quantified as mature osteoclasts. […]

RAW264.7 cells [4] = experiment: Chemotaxis assay of RAW264.7 cells; assay type: cell-based, murine; settings: series of sICAM1 concentrations
Method: Chemotaxis assay was performed as described (Lu et al., 2011) with the following modifications: 10^5 RAW264.7 cells in 100 μl of 0.5% BSA in DMEM were seeded into the upper chamber of 8 μm pore transwell inserts (BD Bioscience) in a 24-well plate. 300 μl of 0.5% BSA in DMEM containing a series of concentrations of recombinant ICAM1 (R&D Systems) was added to the bottom chamber. After 8 h in culture, methanol was added to the bottom chamber to fix migrated cells. Cells in the upper chamber were removed with a cotton swab and stained for 30 mins in 0.2% crystal violet for quantification using a microscope.

RAW264.7 cells [5] = experiment: In vitro bone resorption assay on bovine bone slices; assay type: cell-based, murine; settings: miRNA transfection, 50 ng/ml RANKL, relative to control cells
Method: 5×10^4 pre-osteoclast cells were seeded onto 1 mm thick slices of bovine bone cut using a diamond saw and sterilized by immersion in 70% ethanol. Cells were cultured for 10 days as indicated in 6-well plates, transferred to fresh plates and washed to remove osteoclasts. Bone slices were stained in a solution of 1% toludine blue in 0.5% sodium tetraborate, destained in PBS plus 1% Triton X-100, and imaged by light microscopy.
In vitro bone resorption assay was then used to measure the effect of ectopic miRNA expression on osteoclast activity. […] Referring to this figures, scale bar represents 200 μm. Results were statistically significant with p<0.01 (**) and p<0.001 (***). […] Since these miRNAs may inhibit osteoclast differentiation or function by targeting different mRNAs, the repression of osteoclast differentiation was further examined using combinations of inhibitory miRNAs. Given that transient transfection with 10 pM of miRNA precursors was sufficient to inhibit up to approximately 90% of osteoclast differentiation, RAW264.7 cells were treated with a combination of miRNAs at a reduced concentration of 1 pM total precursors.

[6] = system: Pu.1, Nfatc1, Ctsk in RAW264.7 cells; experiment: Western blot of Pu.1, Nfatc1, Ctsk after miRNA transfection and RANKL; assay type: cell-based, murine; settings: transient miRNA transfection, 50 ng/ml RANKL
Method: SDS lysis buffer (0.05 mM Tris-HCl, 50 mM BME, 2% SDS, 0.1% Bromophenol blue, 10% glycerol) was used to collect protein from cells. Samples were sonicated and heat denatured protein was equally loaded, separated on a 10% SDS-page gel, transferred onto a pure nitrocellulose membrane (BioRad), and blocked with 5% milk. Primary antibodies for immunoblotting included: anti-IκBα (1:1000 dilution, Cell signaling, 44D4), anti-p-p65 (1:500 dilution, Santa Cruz Biotechnology), anti-Pu.1 (5 μg/ml, Abcam, AB88082), anti-Nfatc1 (1 μg/ml, Abcam, AB25916), anti-Ctsk (4 μg/ml, Abcam, AB19027), anti-β-actin (1:5000 dilution, ABcam), for loading control. Membranes were incubated with horseradish peroxidase (HRP)-conjugated anti-mouse secondary antibody (1:2000 dilution, GE Healthcare) or anti-rabbit secondary antibody (1:2000 dilution, GE Healthcare) for 1 h and chemiluminescence signals were detected by ECL substrate (GE Healthcare).
To better examine the capacity of the miRNAs to inhibit osteoclast differentiation, osteoclast markers were examined in RAW264.7 cells transfected with the miRNA of interest, followed by RANKL treatment. FIG. 5F illustrates Western blot analysis for Pu.1, Nfatc1, or Ctsk in RAW264.7 cells after transient transfection with indicated miRNA and treatment with 50 ng/ml RANKL. Data in the figure represent average ±SEM; p values were based on Student's t-test.

Q: With OPG (receptor) as the molecule, how does the decrease in osteoclast differentiation of RAW264.7 cells induced by 30 ng/ml RANKL, with 200 ng/ml OPG (RANKL) read?
A: The decrease in osteoclast differentiation of RAW264.7 cells induced by 30 ng/ml RANKL, with 200 ng/ml OPG was > 80%.

Q: Which “sICAM1-induced miRNA expression changes” value [1] does the source give for `O=C(Nc1cc(Cl)cc2c1[nH]c1cnccc12)c1cccnc1` [PS1145] here?
A: Its value is “abrogated”.

Q: What about the “sICAM1-induced miRNA expression changes” value ([1]; listed as PS1154) of the same molecule?
A: The value was “higher levels of miRNA expression”.

B1: sICAM1: soluble ICAM1, the cleaved extracellular domain of ICAM1; recombinant ICAM1 (R&D Systems, 796-IC-050) (protein)
chain: QVSIHPREAFLPQGGSVQVNCSSSCKEDLSLGLETQWLKDELESGPNWKLFELSEIGEDSSPLCFENCGTVQSSASATITVYSFPESVELRPLPAWQQVGKDLTLRCHVDGGAPRTQLSAVLLRGEEILSRQPVGGHPKDPKEITFTVLASRGDHGANFSCRTELDLRPQGLALFSNVSEARSLRTFDLPATIPKLDTPDLLEVGTQQKLFCSLEGLFPASEARIYLELGGQMPTQESTNSSDSVSATALVEVTEEFDRTLPLRCVLELADQILETQRTLTVYNFSAPVLTLSQLEVSEGSQVTVKCEAHSGSKVVLLSGVEPRPPTPQVQFTLNASSEDHKRSFFCSAALEVAGKFLFKNQTLELHVLYGPRLDETDCLGNWTWQEGSQQTLKCQAWGNPSPKMTCRRKADGALLPIGVVKSVKQEMNGTYVCHAFSSHGNVTRNVYLTVLYHSQNN
Q: Which “expression of miRNAs downregulated during osteoclastogenesis” value ([1]; 50 ng/ml sICAM1, magnified after co-treatment with RANKL) does the source give for B1 here?
A: The value was “significant inhibition”.

Q: What about the “time course of osteoclast marker gene expression” value [2] of the same molecule?
A: The value was “reduced the time necessary for osteoclast differentiation”.

Q: And the osteoclast differentiation (RAW264.7 cells [3]; 50 ng/ml sICAM1 alone)?
A: Its osteoclast differentiation is “not sufficient to induce differentiation”.

Q: What about the “time to osteoclast differentiation” value (RAW264.7 cells [3]; 50 ng/ml sICAM1 and 50 ng/ml RANKL together) of the same molecule?
A: Its value is ≤ 2 days.

Q: What about the osteoclast differentiation (RAW264.7 cells [3]; 50 ng/ml sICAM1 combined with 10 ng/ml RANKL) of the same molecule?
A: Its osteoclast differentiation is “additive effect”.

Q: What about the “TRAP+ osteoclasts” value (RAW264.7 cells [3]; 50 ng/ml sICAM1 with 4 ng/ml RANKL) of the same molecule?
A: The value was “high levels”.

Q: And the “TRAP+ osteoclasts” value (RAW264.7 cells [3]; low levels of sICAM1 with 4 ng/ml RANKL)?
A: Its value is “no effect”.

Q: What about the RAW264.7 cell migration (RAW264.7 cells [4]) of the same molecule?
A: The RAW264.7 cell migration was “increased migration in a dose dependent manner”.

B2: miR-33a: miRNA, SEQ ID NO: 74; delivered as pre-miRNA precursor; down-regulated during osteoclastogenesis (nucleic acid, listed as Homo sapiens)
chain: CUGUGGUGCAUUGUAGUUGCAUUGCAUGUUCUGGUGGUACCCAUGCAAUGUUUCCACAGUGCAUCACAG
modifications: pre-miRNA precursor hairpin, chemistry not given here
Q: For B2, which “bone resorption (osteoclast activity)” value (RAW264.7 cells [5]) is on record?
A: Its value is “only a small decrease in bone resorption”.

Q: And the “expression of Pu.1, Nfatc1, Ctsk (Western blot)” value [6]?
A: Its value is “retained expression of all three osteoclast genes”.

Q: What about the “osteoclast maturation and activity” value (RAW264.7 cells [3]; all models tested) of the same molecule?
A: The value was “Partial inhibition”.
